1 variant from IntAct's records for PubMed 8137824 can be followed below.

To fix the notation:
B1: Mating-type protein ALPHA2 (Saccharomyces cerevisiae), P0CY08 (parent)
chain: MNKIPIKDLLNPQITDEFKSSILDINKKLFSICCNLPKLPESVTTEEEVELRDILGFLSRANKNRKISDEEKKLLQTTSQLTTTITVLLKEMRSIENDRSNYQLTQKNKSADGLVFNVVTQDMINKSTKPYRGHRFTKENVRILESWFAKNIENPYLDTKGLENLMKNTSLSRIQIKNWVSNRRRKEKTITIAPELADLLSGEPLAKKKE
partner: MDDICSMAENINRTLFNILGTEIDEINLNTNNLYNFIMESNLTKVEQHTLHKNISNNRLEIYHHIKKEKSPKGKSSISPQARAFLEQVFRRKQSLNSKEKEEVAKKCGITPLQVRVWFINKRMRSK

The assay covers variants of B1. The following applies: with mata1_yeasx MATA1, P0CY10.
As for MNKIPIKDLLNPQITDEFKSSILDINKKLFSICCNLPKLPESVTTEEEVELRDILGFLSRANKNRKASDEEKKALQTTSQATTTITVALKEMRSIENDRSNYQLTQKNKSADGLVFNVVTQDMINKSTKPYRGHRFTKENVRILESWFAKNIENPYLDTKGLENLMKNTSLSRIQIKNWVSNRRRKEKTITIAPELADLLSGEPLAKKKE [I67A;L74A;L81A;L88A], the “effect of a mutation on the interaction” value is “disrupting interaction strength”.
